Measured values as given in article PMC7031210.

Molecular target: T1, RecA (B. subtilis) (UniProt P16971)
T1 sequence: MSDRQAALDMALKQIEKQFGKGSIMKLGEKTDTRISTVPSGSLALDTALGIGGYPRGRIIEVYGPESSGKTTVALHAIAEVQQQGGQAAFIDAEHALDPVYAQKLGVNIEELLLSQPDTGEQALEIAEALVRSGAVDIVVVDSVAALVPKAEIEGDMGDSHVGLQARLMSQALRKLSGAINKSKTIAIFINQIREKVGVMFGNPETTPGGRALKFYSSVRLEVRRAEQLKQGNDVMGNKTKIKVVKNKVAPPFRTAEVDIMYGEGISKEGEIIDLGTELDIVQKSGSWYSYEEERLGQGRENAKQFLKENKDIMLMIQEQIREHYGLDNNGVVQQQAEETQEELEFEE

maximal rate of ssDNA-dependent ATP hydrolysis of RecA (650 nM) in the presence of RarA K51A (100 nM), coupled spectrophotometric ATPase assay, 5 mM ATP, 30 min at 37°C: 8.8 min⁻¹
B1: RarA K51A (enzyme)
chain: MKPLAYRMRPTKIEDIIGQQHLVAEDKIIGRMVQAKHLSSMILYGPPGIGATSIATAIAGSTSIAFRKLNAVINNKKDMEIVAQEAKMSGQVILILDEVHRLDKGKQDFLLPYLENGMIILIGATTANPYHAINPAIRSRTQIFELEPLTPELIKQALERALHDEHRGLGTYSVSIDDQAMEHFAHGCGGDVRSALNALELAVLSTKESADGEIHITLETAEECLQKKSFSHDKDGDAHYDVLSAFQKSIRGSDANAALHYLARLIEAGDLESIARRLLVIAYEDIGLASPQAGPRVLNAIQTAERVGFPEARIPLANAVIELCLSPKSNSAILAIDEALADIRAGKIGDVPKHLKDAHYKGAQELGRGIDYKYPHNYDNGWVEQQYLPDPLKNKQYYKPKQTGKFESALKQVYDKLMKRK
